Key:
Test in all cases: BLI, IgG
[1] = target: RSV prefusion F (preF), subtype A (respiratory syncytial virus, subtype A, UniProt P03420 26-513)
[2] = target: T1, RSV postfusion F (postF), subtype A (respiratory syncytial virus, subtype A, UniProt P03420 26-513)
T1 construct: also called F ΔFP; Postfusion subtype A

[3] = target: RSV prefusion F (preF), subtype B (respiratory syncytial virus, subtype B)

Binder | binding result [1] | binding result [2] | Kd [3] [nM] | Kd [1] [nM] | Kd [2] [nM]
ADI-14396 (antibody, V domains shown, also called Ab 63) VH: EVQLVESGGGVVQPGRSLRLSCAASGFTFSSYAMHWVRQAPGKGLEWVAVISYDGSNKYYADSVKGRFTISRDNSKNTLYLQMNSLRAEDTAVYYCARELRYFDWEYGGMDVWGQGTTVTVSS VL: EIVLTQSPSSLSASVGDRVTITCQASQDISNYLNWYQQKPGKAPKLLIYDASNLETGVPSRFSGSGSGTDFTFTISSLQPEDIATYYCQQYDNLPMYTFGQGTKLEIK | no binding | no binding | 15.5 | – | –
ADI-14399 (antibody, V domains shown, also called Ab 65) VH: EVQLLESGPGLVKPSQTLSLTCAVSGGSINSGRYSWSWIRQPPGKGLEWIGYIYYSGTTYYNPSLESRVTISRDTSKNQFSLNLSSVTAADTAVYYCARTNSADSYASGSHYIRPQYFDFWGQGTLVTVSS VL: DIQLTQSPATLSLSPGERATLSCRASQSVSSYLAWYQQKPGQAPRLLIYGASNRATGIPARFSGSGSGTDFTLTISRLEPEDFAVYYCQQRSNWLTFGGGTKVEIK | – | no binding | 0.365 | 0.189 | –
ADI-14400 (antibody, V domains shown, also called Ab 66) VH: QVQLVQSGGGVVQPGRSLRLSSAASGFTFSSYAMHWVRQAPGKGLEWVAVISHDGSKYYADSVKGRFTISRDNSKSTLNLQMNSLRPEDTAVYYCARGGDVRLYDDSNGYHYDTYYFDYWGQGTLVTVSS VL: EIVLTQSPSSLSASVGDRVTITCRASQGIRNDLGWYQQKPGKAPKLLIYAASTLQSGVPSRFSGSGSGTDFTLTISSLQPEDFATYYCLQDYNYPLTFGGGTKVEIK | – | no binding | 0.451 | 0.29 | –
ADI-14401 (antibody, V domains shown, also called Ab 67) VH: QVQLVQSGGGLVKPGGSLRLSCAASGFTFSSYSMHWVRQAPGKGLEWVSSISASSSYLNYADSVKGRFTISRDNAKKSLYLQLNTLRADDTAVYYCAREDHDSGTYYLNWFDPWGQGTLVTVSS VL: QSVVTQPPSVSGAPGQRVTISCTGSSSNIGAGYDVHWYQQFPGTGPKLLIYGNSHRPSGVPDRFSGSKSGPSASLAITGLQAEDEADYYCQSYDSSLSGYVFGTGTKVTVL | – | no binding | 2.17 | 1.19 | –
ADI-14576 (antibody, V domains shown) VH: QVQLVQSGAEVKKPGASVKVSCKASGYTFTSYGISWVRQAPGQGLEWMGWISAYNGNTNYAQKLQGRVTMTTDTSTSTAYMELRSLRSDDTAVYYCARDPPVIAAGDFQHWGQGTLVTVSS VL: DIVLTQSPLSLPVTLGQPASISCRSSQSLVHSDGNTYLNWFQQRPGQSPRRLIYKVSNRDSGVPDRFSGSGSGTDFTLKISRVEAEDVGVYYCMQGTHWPPDFGQGTRLEIK | – | no binding | 19.3 | 6.97 | –
ADI-14407 (antibody, V domains shown, also called Ab 73) VH: QVQLVQSGGGVVQPGRSLRLSCAASGFTFSSYGMHWVRQAPGKGLEWVAVIWFDGNNKEYADSVKGRFAISRDNSKNTLYLQMNSLRAEDTAVYYCARDLIPVTIFGVVNPYSYYGMDVWGQGTTVTVSS VL: EIVMTQSPSSLSASVGDRVTITCRASQSISTYLNWYQQKPGTAPKLLIYAASSLESGVPSRLSGSGSGTEFILTISSLQREDFATYYCQQSYSTPPTFGQGTKVEIK | – | – | 11.4 | 6.28 | 0.378
ADI-14408 (antibody, V domains shown, also called Ab 74) VH: QVQLVQSGPALVKTTQTLTLTCTFSGFSLTTSGMCVSWIRQPPGKALEWLARIDWDDDKYYSTSLKTRLTISKDTSKNQVVLTLTNVDPVDTATYYCARMQKYDSSGYYLHYFDSWGQGTLVTVSS VL: DIRLTQSPSSLSASVGDRVTIACRASQSISSYLNWYQQKPGKSPKVLIYAASILQTGVPSRFSGSGSGTDFTLTISSLQPEDFATYYCQQSYSINQYTFGQGTKVEIK | – | – | 12.8 | 8.53 | 2.14
ADI-14409 (antibody, V domains shown, also called Ab 75) VH: QVQLVQSGGEVKKPGASVKVSCKASGYTFTYYGISWVRQAPGQGLEWMGWISAYNGNTNYEQKFQGRVTMTTDTSTGTAYMELRSLTSDDTAVYYCARDRIVVVTAANYYGLDVWGQGTTVTVSS VL: not shown | – | no binding | 0.289 | 0.15 | –
ADI-14410 (antibody, V domains shown, also called Ab 76) VH: QVQLQQWGAGLLKPSETLSLTCAIYSGSFSGYYWSWIRQPPGKGLEWIGQINYSGSAYYTPSLKSRVTISVDTSKNQFSLKLSSVTAADTAVYYCARVRITMVQGAIVPCAIDVWGQGTTVTVSS VL: SYELTQPPSASGTPGQRVTISCSGSSSNIESNFVYWYQQLPGTAPKLLIHRNDQRPSGVPDRFSGSKSGTSASLAISGLRSEDEADYSCAAWDDSLSGVVFGGGTKVTVL | – | no binding | 17.1 | 3.77 | –
ADI-14411 (antibody, V domains shown, also called Ab 77) VH: QVQLVQSGAEVKKPGASVKLSCKASGYTFTRFYIHWVRQAPGQGLEWMGIINPSGGGTSYAQNFQDRVTMTRDTSTSTVYMELSSLRSEDTAVYYCARNGYSTRSLQNNWFDPWGQGTLVTVSS VL: ETTLTQSPSSLSASVGDRVTITCRASQSIDNYLNWYQQKPGKAPKLLIYEASSLQSGVPSRFSGSGSGTDFTLTISSLQPEDFATYYCQQTYSSLPYTFGQGTKVEIK | – | no binding | 3.92 | 6.12 | –
ADI-14413 (antibody, V domains shown, also called Ab 79) VH: EVQLVESGGVVVQPGGSLRLSCAASGFNFDDYSMHWVRQAPGKGLEWVSVISWDGGITYYADSVKGRFTMSRDNGKKSLYLQMNSLRTEDTAVYYCGKDGDIYSSSSAGIDYWGQGTLVTVSS VL: SYVLTQPPSASGTPGQRVIISCSGSSSNIGSHTVKWYQQLPGTAPKLLIDRNNQRPSGVPDRFSGPKSGTSASLAISGLQSEDEADYYCASWDDSLNGPVFGGGTQLTVL | – | no binding | 2.71 | 5.45 | –
ADI-14414 (antibody, V domains shown, also called Ab 80) VH: QVQLVQSGAEVKKPGSSMKVSCKASGGSFSSYGISWLRQAPGQAPEWMGGIIPIFGTINYAQKFQGRITISADESTSTVYMELSSLRIEDTAVYYCARDGRTSPRYYGWDVWGQGTTVTVSS VL: DIRLTQSPATLSLSPGDRATLSCRASQSLYTYLSWYQQKPGQAPRLLIYDASNRATGIPARFSGSGSGTDFTLTISSLEPEDFAVYYCHYRSNWPPCTFGGGTKVDIK | – | no binding | 3.07 | 5 | –
ADI-14415 (antibody, V domains shown, also called Ab 81) VH: EVQLVESGPGLVKPSETLSLTCTVSGGSISNYYWTWIRQPPGEGLEWIGYIYYTGSTNYNPSLKNRVTISVDTPKNQFSLKLNSVTAADTAVYYCARGWGYSYGYESYYNGLDVWGQGTTVTVSS VL: DIQLTQSPSFLSASVGDRVTITCRASQGISSYLAWYQLKPGKAPKLLIYAAATLETGVPSRFSGSGSGTEFTLTISGLQPEDFATYYCQQLNSFPFTFGPGTKVEIK | – | no binding | 3.51 | 4.2 | –
ADI-14420 (antibody, V domains shown, also called Ab 86) VH: EVQLVESGGVVVQPGGSLRLSCAASGFNFDDYAMHWVRQAPGKGLEWVSLISWDGGNTYYSDSVKGRFTISRDNGKNSLYLQMNSLRAEDTALYYCAKDIDRYSGYDYVFHYWGQGTLVTVSS VL: DIRLTQSPSTLSAYVGDRVTITCRASQSISSWLAWYQQKPGKAPKLLIYKASSLESGVPSRFTGSGSGTEFTLTISGLQPDDFATYYCQQYNSYSTFGGGTKVDIK | – | no binding | 4.32 | 6.35 | –
ADI-14422 (antibody, V domains shown, also called Ab 88) VH: QVQLVQSGAEVKKPGSSVKVSCKASGGTFSSYTINWVRQAPGQGLEWMGRIIPILGIANYAQKFQGRVTITADKSTSTAYMELSSLRSEDTAVYYCARRHQDTYGMDVWGQGTTVTVSS VL: QSVLTQPPSVSGAPGQRVTISCTGSSSNIGAGYDVHWYQQLPGTAPKLLIYGNSNRPSGVPDRFSGSKSGTSASLAITGLQAEDEADYYCQSYDSSLSGSVFGGGTKVTVL | – | – | 33.9 | 11.4 | 4.76
ADI-14423 (antibody, V domains shown, also called Ab 89) VH: EVQLVESGGVVIQPGGSLRLSCAASGFNFDDYSMHWVRQAPGKGLEWVSLISWDGGITYYADSVKGRFTISRDNGKKSLYLQMNSLRTEDTALYYCAKDIDIYSDYAGYFDYWGQGTLVTVSS VL: DIRMTQSPSSLSASVGDRVTITCRASQGIRNDLGWYQQKPGKAPKRLIYAASSLQSGVPSRFSGSGSGTEFTLTISSLQPEDFATYYCLQHNSYPFTFGQGTRLEIK | – | no binding | 3.4 | 9.65 | –
ADI-14426 (antibody, V domains shown, also called Ab 92) VH: EVQLVESGGGVVQPGRSLRLSCAASGFTFSSFPMHWVRQAPGKGLEWVAVASYDGRNNYYAGSVKGRFTISRDNSKNTLYLQINSLRAEDTAVYYCAREVVIAAHFDYWGQGTLVTVSS VL: SSELTQEPAVSVALGQTVRITCQGDSLRSFYANWYQQKPGQAPILVIYGKNDRPSGIPDRFSGSNSGNTASLTITGAQAEDEADYYCNSRDSSGNHRVFGGGTKVTVL | – | – | 19.2 | 23.8 | 0.396
ADI-14427 (antibody, V domains shown, also called Ab 93) VH: QVQLVQSGAEVKKPGSSVKVSCKASGGTFNSYTINWVRQAPGQGLEWMGRIITIPGATNYAQKFQGRVTFTADKSTSTAYMELSSLRSEDTAVYFCAKRGTGYYGMDVWGQGTTVTVSS VL: QSVLIQPRSVSGSPGQSVTISCTGTSSDVGGYNYVSWYQQHPGKAPKLMIYDVSERPSGVPDRFSGSKSGNTASLTISGLQAEDEADYYCCSFVGIYILVFGGGTKLTVL | – | – | 10.8 | 0.234 | 3.33
ADI-14577 (antibody, V domains shown) VH: QVQLVQSGAEVKKPGASVKVSCKASGYTFTNYGITWVRQAPGQGLEWMGWISAYNGVRNYAQKLQGRVTMTIDTSRTTAYMELKNLRSDDTAMYYCARGPPVIAADDFQHWGQGTMVTVSS VL: DIQMTQSPLSLPVTLGQPASISCRSSQSLVHSNGDTYLNWFQQRPGRSPRRLIYKVSNRDSGVPDRFSGSGSGTDFTLKISRVEAEDVGVYYCMQGTHWPPDFGQGTRLEIK | – | no binding | 2.19 | 0.439 | –

Reference: patent publication US20260258115A1 (MAPP BIOPHARMACEUTICAL, published 2026)
